# Source: the DeepSol protein solubility set
# Test: soluble on expression in E. coli; label from the status in PepcDB or PDB records
row,Sequence,soluble on expression in E. coli
1,TLFDGIARAVCRAGCLPRKELYEAWEVARRVRRRFRGGRVVDLACGHGLLAWIMLLLDDSSPGALAVDRRLPPSAAGLAAVLETEWPRLRGRVRLLEADLAEVELGRDDLVVSAHACGGLTDLVLARAVAAGARVAVLPCCHDLAGADLAGLQGWLDGPLAMDVLRATGLRERGYRVFTQQ,not soluble
2,MPAPLTFARLTQVDPNLITAHMRDPRLAIHMPLMPDSWSDAQTVSFVQSKEACWDRDGLGHWAFLHQDRYVGWGGFQREGEEWDFGLVLCPAHFGLGLPIARKALDFAHADPRIPFVTFLLPPSRQHLGALRRLGAQPLGETDHAGHRFLKFRLDTA,not soluble
3,SQTLRIGYVSSLLYGLLPEIIYLFRQQNPEIHIELIECGTKDQINALKQGKIDLGFGRLKITDPAIRHIVLHKEQLKLAIHKHHHLNQFAATGVHLSQIIDEPMLLYPVSQKPNFATFIQSLFTELGLVPSKLTEIREIQLALGLVAAGEGVCIVPASAMDIGVKNLLYIPILDDDAYSPISLAVRNMDHSNYIPKILACVQEVFATHHIRPLIESILEHHHHHH,soluble
4,MGSDKIHHHHHHMKEQKLSNRFCPEGMTVEEWQVGLRREFAEQNPFDVEHLDENRIWGDYLVANGRNRYRVAFRGVRSERNYCSCLDFRTNGLGTCKHIEAVTLFLQDQVPGYPWGEFDYTPEYSSIYVSYKGGRSIKMRVGREETARFEALRARFFDESGTLPPENYSFLPQICDEAKDIAASFRCYEDVFDLTQEHCRRMEWQDYLRETNPDKRVDNEYTADMPEEMRRHVYDLAYEGHGVMVGLPSDVIVREVVALADVYLRDQPGATGYVIINDPQRFILWRNAFANPALRRLPIEVMHASAFVKKVANNVPPCTFMFVEQAARLKEWRDPVSVAIKRMQIDHLYMNLETIEDLTPVQFSSVVQHIDPFILGPFYRFIRDYRPIFPLRNDGSNLPDDVRDFMFLYTSDSIREMNEMLPPIRTAEILLHGTDAEEEIDKLLRHLNRVLSNDTLREVFLKRISMIVGAS,not soluble
5,MRFTKTLFTTALFGASVFSFQSTAWADTLEQQFQQGSEATTRGDYQTTFKFLLPLAEQGNALAQMMLGVMYAKGQGVKQDDVEAVKWYRKAAEQGYADAQAMLGFSYLLGQSGVQVNKSLAKEWFGKACDNGDQNGCEYYGKLNRGEL,not soluble
6,MLRHLGQLSVAHRGSGLHDAYVVNPAQQLDPELAPPPVVYVLETSYVALLLKNPEDVGYQLARRHDYCFALAPHLCILYSRHRVCERVKHHHSHPPPATCSS,soluble
7,MGSDKIHHHHHHMAKLDDATLAQLFTEARSHNGWNPEPLPESVLRELYALTKFGPTAANGSPARFYFVTSAEAKERLAKLSSGSNGPKIMQAPCTVIIGYDLDFPQTLPKLFPHAPGAKDWFNDPVAKEWCALRNSSLQGGYFMIGARALGLDVGPMSGFDNAAVDAEFFAGTNIKSNFIVSIGHGTDEGLFPRNPRLDFDEAAKIL,not soluble
8,SADISLDELIRKRGAAAKGRLNARPGVGGVRSRVGIQQGLLSQSTRTATFQQRFDARQKIGLSDARLKLGVKDAREKLLQKDARFRIKGKVQDAREMLNSRKQQTTVPQKPRQVADAREKISLKRSSPAAFINPPIGTVTPALKLTKTIQNLYDLDEDDDGIASVPTKQMKFAASGGFLHHMAGLSSSKLSMSKALPLTKVVQNDAYTAPALPSSIRTKALPVLTSPGT,soluble
9,MTAPKVFVSHASEDKARFVVDFARRLRENGVDAWLDQWEMKPGDSLVDKIFEEGLREARAVVIVLSATSVRKPWVREELNASVVNRISRGTKLIPVVIDDCDVPEALRSTVLEHHHHHH,not soluble
10,MGSDKIHHHHHHMTTPANAVDTALITRRSIRAFLPTPVPRADIEAILEAASRAPSGTNTQPWKVYVVTGESLARLSRALLAAYDDPQRDALYQEEYPYYPHQWVSPYIDRRRKIGWDLYGLLGITKGDKARMHEQHAQNYRFFGAPVGLFFTIDRVMERGSWLDYGMFLQAIMTAARGRGLDTCPQAAFTQFHRVIAEHLGLPPEEQLVCGMSLGFADEDALVNTLRTEREPVERFTRFLD,not soluble
11,MYRGEPGTRAHQQEEHVVDSSPLEPSSSLEDTRVWGHVGVAAAPRLLAQALPKLRCKLPKPQAPLAGHEAQQPRGGLILPLALASELMESSTVQWLSYKQPQVVPVVPQLPRVLWQVQPLEKPGSQSFRNNQPSILLKTRLRFSITRISLFNYHR,soluble
12,MGATMKPSNKESVQDTVARLRENRNQQQSKVGKNATHSSKEQTPLDTPTRSKASKNAKAVSAAERKTEANKIIKHLLLGELTQGQALKSLRINILGLKQDVFARLVDVSRKTLSDIENDRGSYNTEILNKVFKPFSLKIGLLPSSPDALKSLLMDGEDG,soluble
13,MAELKDQLSLLGRKTEYKQDYAPEVLEAFDNKHPENDYWVRFNCPEFTSLCPITGQPDFAEIRISYIPDIKMVESKSLKLYLFSFRNHGAFHEDCVNIIMKDLIKLMNPKYIEVTGIFTPRGGISIYPYANYGRPGTKFEQMAEHRLMNRE,not soluble
14,MKFRSTALVKGFRQSAPYVNAHRDKTVVIMLGGEAIADPNFANIVNDIALLNSLGLRIVIVYGTRPQMRSLLKQTEHHAPFHKGIRITDEQTLELVKQIAGQLQLDITARLSMSLNNTPMAGAQINVISGNFVIAQPLGVDDGIDYCHSGRVRRIDTQGINRMLDQQSIVLLGPVASSVTGECFNLLSEDVATQLAIRLNADKLIGFCSEQGVLNEKGQILAELFPSEAEEILQRLEKELTPENGKLTGTMRFLKGAISACKAGVPRSHLISYKEDGALIQELFSFDGIGTQVVMASSEQVRDAEIDDIGGILDLIRPLEEEGILVRRSREQLEQEIAQFTIIEKDGLVIACAALYPFPEEGMAEMGCVAVHPDYRDGDRGVTLLNRLRSKAKQFKLSQLFVLTTRSLHWFREQGFIEVDVSHLPIKKQKLYNFQRKSKILVLKGL,not soluble
15,MRLHPRTEAAKESIFPRMSGLAQRLGAVNLGQGFPSNPPPPFLLEAVRRALGRQDQYAPPAGLPALREALAEEFAVEPESVVVTSGATEALYVLLQSLVGPGDEVVVLEPFFDVYLPDAFLAGAKARLVRLDLTPEGFRLDLSALEKALTPRTRALLLNTPMNPTGLVFGERELEAIARLARAHDLFLISDEVYDELYYGERPRRLREFAPERTFTVGSAGKRLEATGYRVGWIVGPKEFMPRLAGMRQWTSFSAPTPLQAGVAEALKLARREGFYEALREGYRRRRDLLAGGLRAMGLRVYVPEGTYFLMAELPGWDAFRLVEEARVALIPASAFYLEDPPKDLFRFAFCKTEEELHLALERLGRVVNSPREAEGGAVSG,soluble
16,MAHHHHHHMRSLTRIASAGVRLDNIDLIGCVGATAAAKLPYTWQVGKSFSDNSASAAAAGGRTTSKITGSVYAVHQQHLFLPLTIEIGFGVQMKHDKDEEYVSRLVGGVLVRVNSSGTYGMLLDSSRFIMAGSAEMIILSKGQAPILRTSR,not soluble
17,MGSDKIHHHHHHMTRVVIIGGSGHVGTYLVPRLVEAGYEVVNVSRGQRAAYTLNAAWKSVEPVVIDRDTEEKAGTFGEKVRALKADIVVDMISFTLDSTKQIVGALRGEVQHFLHCGTIWVYGHNTAIPATEDQPKNPFGSYGTQKAEIESWLLNEARRNGFPATVFRPGHIVGPGWEPLNPAGHFDVGVFSQIARGEPLVLPNLGNETVHHVHADDVAQMVMRAIVSWSNAVGEAFNTVSPQAINLRGYAEALYNWFGHAPRLSYEPFDTWKGKQTEENWRATWEHIARSPSHSIAKARNLLGYDPRYSSLQAVYESVEWLVANGKLSR,not soluble
18,MGSDKIHHHHHHMQSFDVVIAGGGMVGLALACGLQGSGLRIAVLEKQAAEPQTLGKGHALRVSAINAASECLLRHIGVWENLVAQRVSPYNDMQVWDKDSFGKISFSGEEFGFSHLGHIIENPVIQQVLWQRASQLSDITLLSPTSLKQVAWGENEAFITLQDDSMLTARLVVGADGAHSWLRQHADIPLTFWDYGHHALVANIRTEHPHQSVARQAFHGDGILAFLPLDDPHLCSIVWSLSPEQALVMQSLPVEEFNRQVAMAFDMRLGLCELESERQTFPLMGRYARSFAAHRLVLVGDAAHTIHPLAGQGVNLGFMDVAELIAELKRLQTQGKDIGQHLYLRRYERRRKHSAAVMLASMQGFRELFDGDNPAKKLLRDVGLVLADKLPGIKPTLVRQAMGLHDLPDWLSAGK,not soluble
19,MNILTLMETFSAVVEAGSFTGAAEKLGLSKSFVSKQVSTLEVELGCRLLYRTTRTLSLSDEGSQFYNHCKIIMAEAENARAEVMDRQGAPRGKIRMTIPQSLIISGFGQLLIDFQLQYPEIKLEVIASGRIEDLVKEGIDIALRVGQLEDSSLISRRLMDCTFQVVASSDYIKKWGEPFQPADLMQHNCLIYGDSKINKGWPFRSPSGESITVKAKGNFISNDGGLVVEGMLNGLGIGFGPSFLFNEHVEKGRLKLLLSDYYQPPTAISALYPLNRNLSRRIRLLIDYLSERLSV,not soluble
20,MGHHHHHHSHMAQKPGTMAQMRNGTSGGDKRQYETEVIILNQCRKLNGQIFIQRDYSKGLDVQFEAEYPARLTEKVPRDVWENTIVRINRIFADAEAITPQTIFETVLGCFTCYASYAITKSTYRRKLDELQEFLNRENREIYHHVGFHIRNPMERGLRVLEISLLSRQGETPRDDVDSPGGAIRTI,not soluble
21,MGSDKIHHHHHHMGGRGSGKTRAGAEWVSGMALGLPPFAGKPSGHIALVGETFNDAREVMVDGPSGILSVSRLVRPRYEASRRRLIWDNGAVATLFSSEDPDSLRGPQFDAAWCDELAKWKNPQETWDMLQFGLRLGDNPRQVVTTTPRAVPLLKALLTDRTVSMTHMRTAENAGNLAEGFMQTIARRYAGTRLGRQELDGELVEERPGALWSRDRIEQCFEENPPPLARIVVAVDPPASSGKASDACGIVVAGIDAEGVGHVLADESMTMAKPHQWARRAIALYHTHEADAIVAEVNQGGEMVAAEDPSVPVLKRRASRGKWLRAEPVAALYEQGRVRHAGRFPALEDEMCDFAPEGLSSGRSPDRLDALVWALGELMLGADHKPRIRRFG,not soluble
22,MSEVNIVVNGREAGSKSKGCALCGATWGDYHADFLGEDLFFCCDICAAEFMNMMDEAFKHTARHNVDELHIDGNYQLGRNVLLKNGEDRLRFYVKFGPGAVIKEFKITD,soluble
23,MPPGKNFRRRKEDSSDEEDDETKFVVRSKLDEAKELQSLRKRQHGVSIATLLVGEKLPLEAELEDDPFKLKTGGVVDMKKVKDRSRDMTVDENDLNLGTSFSAETNRRDEDADMMKYIETELKKKKGMVEAEEQKVKVKNPEDLLYELPENINVSSAKKTEEMLSNQMLSGIPEVDLGIDAKIKNIINTEEAKAKLLAEQRNKKKDSGTSFVPTNIAVNYVQHNRFYHEDSNAPQRRNREEPKARPLRVGDTEKPAPEASPPNFRKRPNNEKATDDYHYEKFKKMNRRY,soluble
24,MGSDKIHHHHHHMNKKGNTEEIIERLFSILSSEKDSIEFLKAVSEFSKFYEIDKKEQERRSSEAKSFVKMALQDFESVKILYQSKIYSLAVYHLQQAVEKYVKAYVLAFFGLSKKEMKGYVGHDSPKAFIRLLDRYKRSLELFLKSIQKIGGLDTQFLKISDEDIRKLVRIVNMSRKQIAEMDSNQIKGIINATIKIKIALENKEIKNQILGLLSKLKNEASEIKSSDPSEKFILEKLIDSVDRVLNNLETLLKLSSTFLVLYMLSIITYPHATFARYPNKTLPPEKYDENLGIVQYFNEIVKLLDEVANLLVYEI,not soluble
